Results as given in publication PMC5777889.
pKd: −log10 of the molar value.

Key:
Assay in all cases: EMSA
Conditions in all cases: buffer, room temperature
H-NS (Vibrio cholerae) = system: H-NS (Vibrio cholerae)
LeuO (Vibrio cholerae) = system: LeuO (Vibrio cholerae)
HapR (Vibrio cholerae) = system: HapR (Vibrio cholerae)

Substance: vieSAB promoter, El Tor biotype (EMSA)
- pKd (H-NS (Vibrio cholerae)): 7.28
- pKd (LeuO (Vibrio cholerae)): 7.51

Substance: vieSAB promoter, classical biotype (EMSA)
- pKd (H-NS (Vibrio cholerae)): 7.36
- pKd (LeuO (Vibrio cholerae)): 7.51

Substance: vieSAB promoter -198 to +70
- pKd (HapR (Vibrio cholerae)): 6.76
